The results in this text go back to article PMC8196545 (Cell reports, 2021).

In this experiment the target is HIV-1 NL4-3 Env on infected cells (HIV-1 group M subtype B, NL4-3 (pNL4-3 …, strain)).

B1: c8595 (antibody, V domains shown)
VH: QVKLQESGPGLVKPSETLSLTCVVSGVSISQSDYFWNWLRQTPGKGLEWLGFISYSGDTFFNPSLESRLGMSVDTSSNHISLSLKSMTAADAAVYYCARTFCDDVKCYPLFDSWGHGKLVAVSS
VL: DIVMTQSPDSLPLSPGERASINCQSSQSVLYSSDNRNYLAWYQLKPGQPPKLLIYWASVRASGVPDRFSGSGSGTDFTLSISSLQAEDVAVYYCQQYYITPYSFGQGTKVEIR
As to B1, the binding result was “binds”.

B2: c8582 (antibody, V domains shown)
VH: QVHLVQSGAEVKKPGSSVKVSCKASGGSFSDYGISWVRQAPGQGLEWMGGIIPGFETTKFAQGLQGRLTMTADESSSTAYMVLNRLRPQDTGVYYCATTGQQNDYYSSGTSYKLNFYFGMDVWGQGTTVTVSS
VL: QSVLTQPPSSSGTPGQRVTITCSGGSSNIETNSVHWYQQLPGAAPKTVISATHQRPSGVPDRFSASKSGASASLAISGLQSEDEADYYCAVWDDSLNTWVFGGGTKLTVL
With B2, the binding result is “binds”.

B3: c12286 (antibody, V domains shown)
VH: EVHLVESGGGWIHPGMALRLSCAASGFTFEDFAMHWIRQVPGKGLEWVSSITWNGRDTAYADSVKGRFTISRDNAKNSLYLQMNSLRTEDTALYYCVKDSSVSSHYFDSWGQGIMAFVSS
VL: AIQMTQSPSTLSASVGDTVTITCRASQSVSAWLAWYQQKPGKAPKLLIYKASSLQTGVPSRFSGSGSGTEFTLTINSLQPDDFATYSCQQYNFYPWTFGPGTKVEIK
With B3, the binding result is on record as “binds”.

B4: c3214 (antibody, V domains shown)
VH: QVQLVQSGAEVKKPGSSVKVSCKASGDNFSGYGINWVRQAPGQGLEWMGRIFPMLPVPSYAQKFQGRVTITADESTNSAYLELTSLRSEDSAVYYCARGTGEGDYFDYWGQGTQVTVSS
VL: DIQMTQSPSSVSASVGDRVTITCRASQGISRYVAWYQQKPGKAPKLLIYAASSLETGVPSRFSGSGSGTDFTLTISSLEPEDFATYYCQQANSFPLTFGGGTKVEIK
For B4, the binding result was “binds”.

B5: c32045 (antibody, V domains shown)
VH: AVQLLESGGGLVKPGGSLRLSCAASGFTFGSYAMHWVRQAPGKGLEWVSSINISSTTYMYYSDSLKGRFTISRDNAKKTLYLQMASLRPEDTAVYYCVREATYCGSQCYSRYFDFWGSGTLVAVSS
VL: DIQMTQSPPSVSAGVGDRVTITCRASQTISGFLSWYQQKPGKAPKLLIYAASTLHSGVPSRFSGSGSGTDFTLTISSLQPEDFATYYCQQSYSAPRTFGQGTKLEIK
Consider B5, for which the binding result was “binds”.

B6: c2842 (antibody, V domains shown)
VH: QVQLVQSGAEMKKPGSSVKVSCKASGGSFRSFTVNWVRQAPGQGLEWVGRIIAIFGSVDYAQKFQGRVTISADESTSTFYMDINSLKSEDTAVYYCVRDGLVGGRDFWGQGTQVTVSS
VL: EIVLTQSPGTLSLSPGERATLFCRASQSIKKNYVAWYQQNPGQAPRLLIYGASSRATGTPDRFRGSGSGTDFTLTISRLEPEDFAVYYCQQYGSAQYSFGQGTKLEIK
Regarding B6, the binding result is “binds”.

B7: c1897 (antibody, V domains shown)
VH: EVQLVQSGAEVKKPGSSVKVSCKGSGGTLNMFALSWVRQAPGQGLEWVGGIIPSFGTTNYAQKFEGRVTITADDSADESTATVHMELSSLRRDDTAVYYCARESSGRADDSLIGYFDRQGEYYFDFWGQGTLVTVSS
VL: DIQMTQSPSTLSASIGDRVTITCRASQSISTLLAWYQQKPGKAPKLLISKASSLQSGVSARFSGSGSGTEFTLTINSLQPDDFATYSCQQYNSHPVTFGQGTKLEIK
With B7, the binding result is on record as “binds”.

B8: c8549 (antibody, V domains shown)
VH: QVTLKESGPTLLRPADTLTLTCNFSGFSLTTDGVALGWMRQSPGKAPEWLAFLFYDDDKQYNPHLKSRLIISKASSTNQLVLAMTNMGPADAGTYFCARLNVLVHDVPPRNYGLDVWGRGITITVSS
VL: DIVLTQSPVSLSVTPGQSASMSCKSSETLLHEDGKSYLYWYLQKPGQSPQLLIYEASKRFSGVSDRFTASGTGTHFTLQIDRVEVDDVGVYYCMENLKALTFGGGTRMEIK
As for B8, the binding result is “binds”.
